Measured values as given in patent publication US20260062456A1.

Legend:
PD-1 (human) = PD-1 (human) (UniProt Q15116); test: cell-based or functional assay
[1] = target: human PD-1 stably expressed on Jurkat/IL-2 reporter cells (Jurkat/PD-1 cells) (human) (UniProt Q15116); test: flow cytometry, Jurkat/PD-1 cells, MFI vs wildtype PD-L1 IgV-Fc
[2] = target: human PD-1 stably expressed on Jurkat/IL-2 reporter cells (Jurkat/PD-1 cells) (human) (UniProt Q15116); test: flow cytometry, Jurkat/PD-1 cells
[3] = target: TIGIT/CD112R/PD1 (Jurkat/PD-1/TIGIT cells carrying PD-1, TIGIT and endogenous CD112R); test: flow cytometry, Jurkat/PD-1/TIGIT cells
[4] = target: human PD-1 and human TIGIT both stably expressed on Jurkat cells (Jurkat/PD-1/TIGIT cells); test: flow cytometry, Jurkat/PD-1/TIGIT cells, 20 nM

Chain of PD-1 (human) (Q15116 25-288): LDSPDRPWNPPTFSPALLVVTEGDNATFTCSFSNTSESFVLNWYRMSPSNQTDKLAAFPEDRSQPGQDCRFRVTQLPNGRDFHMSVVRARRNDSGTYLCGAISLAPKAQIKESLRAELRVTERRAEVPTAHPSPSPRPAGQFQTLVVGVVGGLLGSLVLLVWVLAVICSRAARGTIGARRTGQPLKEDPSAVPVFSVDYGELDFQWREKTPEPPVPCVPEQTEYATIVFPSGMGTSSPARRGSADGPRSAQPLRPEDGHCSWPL
Chain of human PD-1 stably expressed on Jurkat/IL-2 reporter cells (Jurkat/PD-1 cells) (human) (Q15116 25-288 limits assumed): as the sequence (Q15116 25-288) above

| Binder | Average Relative Luminescence Units (PD-1 (human)) | Fold increase in IL2 reporter signal (PD-1 (human)) | further results |
| --- | --- | --- | --- |
| variant PD-L1 IgV-Fc P6S, N45T, N78I, I83T (Fc fusion) FTVTVSKDLYVVEYGSNMTIECKFPVEKQLDLAALIVYWEMEDKTIIQFVHGEEDLKVQHSSYRQRARLLKDQLSLGIAALQTTDVKLQDAGVYRCMISYGGADYKRITVKVNAAAAEPKSSDKTHTCPPCPAPELLGGPSVFLFPPKPKDTLMISRTPEVTCVVVDVSHEDPEVKFNWYVDGVEVHNAKTKPCEEQYGSTYRCVSVLTVLHQDWLNGKEYKCKVSNKALPAPIEKTISKAKGQPREPQVYTLPPSREEMTKNQVSLTCLVKGFYPSDIAVEWESNGQPENNYKTTPPVLDSDGSFFLYSKLTVDKSRWQQGNVFSCSVMHEALHNHYTQKSLSLSPGK | 2250 RLU | 1.01 fold |  |
| variant PD-L1 IgV-Fc A33D, N45T, N78I (Fc fusion) FTVTVPKDLYVVEYGSNMTIECKFPVEKQLDLDALIVYWEMEDKTIIQFVHGEEDLKVQHSSYRQRARLLKDQLSLGIAALQITDVKLQDAGVYRCMISYGGADYKRITVKVNAAAAEPKSSDKTHTCPPCPAPELLGGPSVFLFPPKPKDTLMISRTPEVTCVVVDVSHEDPEVKFNWYVDGVEVHNAKTKPCEEQYGSTYRCVSVLTVLHQDWLNGKEYKCKVSNKALPAPIEKTISKAKGQPREPQVYTLPPSREEMTKNQVSLTCLVKGFYPSDIAVEWESNGQPENNYKTTPPVLDSDGSFFLYSKLTVDKSRWQQGNVFSCSVMHEALHNHYTQKSLSLSPGK | 1970 RLU | 0.89 fold |  |
| variant PD-L1 IgV-Fc A33D, S75P, D104G (Fc fusion) FTVTVPKDLYVVEYGSNMTIECKFPVEKQLDLDALIVYWEMEDKNIIQFVHGEEDLKVQHSSYRQRARLLKDQLPLGNAALQITDVKLQDAGVYRCMISYGGAGYKRITVKVNAAAAEPKSSDKTHTCPPCPAPELLGGPSVFLFPPKPKDTLMISRTPEVTCVVVDVSHEDPEVKFNWYVDGVEVHNAKTKPCEEQYGSTYRCVSVLTVLHQDWLNGKEYKCKVSNKALPAPIEKTISKAKGQPREPQVYTLPPSREEMTKNQVSLTCLVKGFYPSDIAVEWESNGQPENNYKTTPPVLDSDGSFFLYSKLTVDKSRWQQGNVFSCSVMHEALHNHYTQKSLSLSPGK | 2170 RLU | 0.97 fold |  |
| variant PD-L1 IgV-Fc A33D/S75P (IgV SEQ ID NO 285) (Fc fusion) FTVTVPKDLYVVEYGSNMTIECKFPVEKQLDLDALIVYWEMEDKNIIQFVHGEEDLKVQHSSYRQRARLLKDQLPLGNAALQITDVKLQDAGVYRCVISYGGADYKRITVKVNAAAAEPKSSDKTHTCPPCPAPELLGGPSVFLFPPKPKDTLMISRTPEVTCVVVDVSHEDPEVKFNWYVDGVEVHNAKTKPCEEQYGSTYRCVSVLTVLHQDWLNGKEYKCKVSNKALPAPIEKTISKAKGQPREPQVYTLPPSREEMTKNQVSLTCLVKGFYPSDIAVEWESNGQPENNYKTTPPVLDSDGSFFLYSKLTVDKSRWQQGNVFSCSVMHEALHNHYTQKSLSLSPGK |  |  | Fold increase over wildtype PD-L1 IgV-Fc [1]: 0.1 fold; MFI at 50 nM [2]: 306 MFI |
| variant PD-L1 IgV-Fc S75P, K106R (Fc fusion) FTVTVPKDLYVVEYGSNMTIECKFPVEKQLDLAALIVYWEMEDKNIIQFVHGEEDLKVQHSSYRQRARLLKDQLPLGNAALQITDVKLQDAGVYRCMISYGGADYRRITVKVNAAAAEPKSSDKTHTCPPCPAPELLGGPSVFLFPPKPKDTLMISRTPEVTCVVVDVSHEDPEVKFNWYVDGVEVHNAKTKPCEEQYGSTYRCVSVLTVLHQDWLNGKEYKCKVSNKALPAPIEKTISKAKGQPREPQVYTLPPSREEMTKNQVSLTCLVKGFYPSDIAVEWESNGQPENNYKTTPPVLDSDGSFFLYSKLTVDKSRWQQGNVFSCSVMHEALHNHYTQKSLSLSPGK | 2130 RLU | 0.95 fold |  |
| variant PD-L1 IgV-Fc A33D, V50A (Fc fusion) FTVTVPKDLYVVEYGSNMTIECKFPVEKQLDLDALIVYWEMEDKNIIQFAHGEEDLKVQHSSYRQRARLLKDQLSLGNAALQITDVKLQDAGVYRCMISYGGADYKRITVKVNAAAAEPKSSDKTHTCPPCPAPELLGGPSVFLFPPKPKDTLMISRTPEVTCVVVDVSHEDPEVKFNWYVDGVEVHNAKTKPCEEQYGSTYRCVSVLTVLHQDWLNGKEYKCKVSNKALPAPIEKTISKAKGQPREPQVYTLPPSREEMTKNQVSLTCLVKGFYPSDIAVEWESNGQPENNYKTTPPVLDSDGSFFLYSKLTVDKSRWQQGNVFSCSVMHEALHNHYTQKSLSLSPGK | 2250 RLU | 1.01 fold |  |
| variant PD-L1 IgV-Fc I20L, N45T, V110M (Fc fusion) FTVTVPKDLYVVEYGSNMTLECKFPVEKQLDLAALIVYWEMEDKTIIQFVHGEEDLKVQHSSYRQRARLLKDQLSLGNAALQITDVKLQDAGVYRCMISYGGADYKRITMKVNAAAAEPKSSDKTHTCPPCPAPELLGGPSVFLFPPKPKDTLMISRTPEVTCVVVDVSHEDPEVKFNWYVDGVEVHNAKTKPCEEQYGSTYRCVSVLTVLHQDWLNGKEYKCKVSNKALPAPIEKTISKAKGQPREPQVYTLPPSREEMTKNQVSLTCLVKGFYPSDIAVEWESNGQPENNYKTTPPVLDSDGSFFLYSKLTVDKSRWQQGNVFSCSVMHEALHNHYTQKSLSLSPGK | 2210 RLU | 0.99 fold |  |
| variant PD-L1 IgV-Fc A33D, S75P (SEQ ID NO 285) (Fc fusion) FTVTVPKDLYVVEYGSNMTIECKFPVEKQLDLDALIVYWEMEDKNIIQFVHGEEDLKVQHSSYRQRARLLKDQLPLGNAALQITDVKLQDAGVYRCVISYGGADYKRITVKVNAAAAEPKSSDKTHTCPPCPAPELLGGPSVFLFPPKPKDTLMISRTPEVTCVVVDVSHEDPEVKFNWYVDGVEVHNAKTKPCEEQYGSTYRCVSVLTVLHQDWLNGKEYKCKVSNKALPAPIEKTISKAKGQPREPQVYTLPPSREEMTKNQVSLTCLVKGFYPSDIAVEWESNGQPENNYKTTPPVLDSDGSFFLYSKLTVDKSRWQQGNVFSCSVMHEALHNHYTQKSLSLSPGK | 2170 RLU | 0.97 fold |  |
| non-stack variant CD155 IgV-Fc control (P18S/S65W/S67A/L104Q/G111R) (Fc fusion) WPPPGTGDVVVQAPTQVSGFLGDSVTLPCYLQVPNMEVTHVSQLTWARHGESGSMAVFHQTQGPWYAESKRLEFVAARLGAELRNASLRMFGLRVEDEGNYTCQFVTFPQRSRSVDIWLRVLAAAEPKSSDKTHTCPPCPAPELLGGPSVFLFPPKPKDTLMISRTPEVTCVVVDVSHEDPEVKFNWYVDGVEVHNAKTKPCEEQYGSTYRCVSVLTVLHQDWLNGKEYKCKVSNKALPAPIEKTISKAKGQPREPQVYTLPPSREEMTKNQVSLTCLVKGFYPSDIAVEWESNGQPENNYKTTPPVLDSDGSFFLYSKLTVDKSRWQQGNVFSCSVMHEALHNHYTQKSLSLSPGK |  |  | MFI at 33.3nM [3]: 961 MFI; MFI at 20 nM [4]: 7910 MFI |
